Source: the supplement of paper PMC11780869

Tested on: Bacillus subtilis
Assay: cleaved RNA product abundance (RNA/gDNA barcode ratio) relative to median wild-type variant (ratio to wild type); higher = more accumulation of the downstream cleavage product
How it was run: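 Reporter mRNAs (truncated aprE or tetM) carrying barcoded, mutagenized RNase Y cleavage-site windows were made from oligos with a 9% error rate and integrated into the B. subtilis chromosome. Cultures grew in LB at 37°C from OD600 0.0003 to 0.3. Cleaved RNA was gel-selected, reverse transcribed and barcode-sequenced alongside genomic DNA barcodes, with UMI collapsing. Cleaved product abundance is the RNA:gDNA barcode ratio per variant, scaled to the median wild-type variant.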

[1] = experiment (reporter, strain, medium): exp 8a: truncated aprE reporter, strain BJT201 with 2% xylose (RNase J1 expressed), cleavage site: glnRA (positions -5 to +31 mutated)
[2] = experiment (reporter, strain, medium): exp 2b: truncated aprE reporter, strain BJT200, cleavage site: cggR-gapA (positions -7 to +36 mutated)
[3] = experiment (reporter, strain, medium): exp 4a: truncated aprE reporter, strain BJT201 with 2% xylose (RNase J1 expressed), cleavage site: cggR-gapA (positions -7 to +36 mutated)

CGACATGTCCCGCTTCTTTCATTAATCCGTTAGCAACTCTTTTGCTATAAACATTTACCTTTTAAGAGGAGGAAT
cleaved RNA product abundance [1]: 1.3

ACAGACGAAGGAGCCGCAAAGAAGTTATTAAGGGATGAAAAATCCCTCAATATAAATGTCTCTCACTTATTTAAA
cleaved RNA product abundance [2]: 0.304 | cleaved RNA product abundance [3]: 0.622

ACAGACGAAGGAGCCGCAATGAAGTTATTAAGGGATGAATAATCCCTCAATATAAAAATCTCTCACTTATTTAAA
cleaved RNA product abundance [2]: 0.872 | cleaved RNA product abundance [3]: 1.03

ACAGACGAAGGAGCCGCAAAAAAGTTATTAAGGGATGAATAATCCCTCAATATATATATCTCTCACTTATTTAAA
cleaved RNA product abundance [3]: 1.08

CGACATGTCCCGCTTCTTTCATTAATCCGTTAGCAACTGTTTTGCCATATACATTTACCTTTTAAGAGGAGGAAT
cleaved RNA product abundance [1]: 0.205

ACAGACGAAGGAGCCGCAAAGAAGTTATTAAGGAATGAATAATCCCTCCATATAAATATCTCTCACTTATTTAAA
cleaved RNA product abundance [3]: 0.0857

ACAGACGAAGGAGCCGCAAAGAAGTAAATAAGGGATGAATAATCCCTCAATATAAATATCTCTCACTTATTTAAA
cleaved RNA product abundance [2]: 0.151 | cleaved RNA product abundance [3]: 0.258

ACAGACGAAGGAGCCGCAAAGAAGTTATTAAGGGATCAATAACCCCTCAATATAAATATCTCTCACTTATTTAAA
cleaved RNA product abundance [3]: 0.561

ACAGACGAAGGAGCCGCATAGAATTTATTAAGGGATGAATAATCCCTCAATATAAATATCTCTCACTTATTTAAA
cleaved RNA product abundance [2]: 0.76 | cleaved RNA product abundance [3]: 0.514

CGACATGTCCCGCTTCTTTCATTAATCTGTTAGGAACTGTTTTGCTATATACATTTACCTTTTAAGAGGAGGAAT
cleaved RNA product abundance [1]: 0.268

ACAGACGAAGGAGCCGCAAAGAATTTATTAAGGCATGAATAATCCCTCTATATAAATATCTCTCACTTATTTAAA
cleaved RNA product abundance [3]: 0.107

ACAGACGAAGGAGCCGCAAACAAGTTATTAAGGGAAGAATAATCCCTCAATATAAATATCTCTCACTTATTTAAA
cleaved RNA product abundance [3]: 0.558

ACAGACGAAGGAGCCGCAAAGAAGTTATTAAGGAATCAATAATCCCTCAATATAAATATCTCTCACTTATTTAAA
cleaved RNA product abundance [2]: 0.0834 | cleaved RNA product abundance [3]: 0.109

CGACATGTCCCGCTTCTTTCATTAATCCATTAGCAACTGTTTTGATATATACAGTTACCTTTTAAGAGGAGGAAT
cleaved RNA product abundance [1]: 0.247

ACAGACGAAGGAGCCGCAAAGAACTTATTAAGGGATGTATAATCCCTCAATATAAATATCTCTCACTTATTTAAA
cleaved RNA product abundance [3]: 0.637

CGACATGTCCCGCTTCTTTCATTAATCCGTTAGGAACTGTTTTGCTATATACATTTGCCTTTTAAGAGGAGGAAT
cleaved RNA product abundance [1]: 0.376

ACAGACGAAGGAGCCGCAAAGAAGTTATGAAGGGATTAATAATCCCTCAATATAAATATCTCTCACTTATTTAAA
cleaved RNA product abundance [2]: 0.402 | cleaved RNA product abundance [3]: 0.476

CGACATGTCCCGCTTCTTTCATTAATCCGTTAGCAACTGTTTTGCTATAAACTTTTACCTTTTAAGAGGAGGAAT
cleaved RNA product abundance [1]: 0.318

CGACATGTCCCGCTTCTTTCATTAATCCGTTAGCAACTGTTATGTTATATACATTTACCTTTTAAGAGGAGGAAT
cleaved RNA product abundance [1]: 0.172

ACAGACGAAGGAGCCGCAAAGAAATTATTAATGTATGAATAATCCCTCAATATAAATATCTCTCACTTATTTAAA
cleaved RNA product abundance [2]: 0.117 | cleaved RNA product abundance [3]: 0.111

ACAGACGAAGGAGCCGCAATGAAGTTATTAAGGGATAAATAATCCCTCAATATAAATATCTCTCACTTATTTAAA
cleaved RNA product abundance [3]: 0.659

ACAGACGAAGGAGCCGCAAATACGTTATTAAGGGATGAATAATCCCTCAATATAAATATCTCTCACTTATTTAAA
cleaved RNA product abundance [3]: 0.984

CGACATGTCCCGCTTCTTTCATTAATCCGTTAGCGACTGTTTTGCTATATACATTGACCTTTTAAGAGGAGGAAT
cleaved RNA product abundance [1]: 0.274

ACAGACGAAGGAGCCGCAAAGAAGTTATTAAAGGATGAATAATCCCTCAATATAAATGTCTCTCACTTATTTAAA
cleaved RNA product abundance [2]: 0.136 | cleaved RNA product abundance [3]: 0.155

ACAGACGAAGGAGCCGCAAAGAAGTTATTAAGGGATGAATAACCCCTAAATATAAATATCTCTCACTTATTTAAA
cleaved RNA product abundance [3]: 0.542

ACAGACGAAGGAGCCGCAAAGAAGTTATTAAGGAATGAATAATCCCTCAATCTAAATATCTCTCACTTATTTAAA
cleaved RNA product abundance [3]: 0.0695

CGACATGTCCCGCTTCTTTCATTAATCCTTTAGCAACTGTTTTGCTATATACATTTACCATTTAAGAGGAGGAAT
cleaved RNA product abundance [1]: 0.837

CGACATGTCCCGCTTCTTTCATTAATCCGTTAGTAACTGTCTTGCTATATACATTTACCTTTTAAGAGGAGGAAT
cleaved RNA product abundance [1]: 0.231

CGACATGTCCCGCTTCTTTCATTAATCCGTTAGCAACTATTTTGCTTTATACATTTACCTTTTAAGAGGAGGAAT
cleaved RNA product abundance [1]: 0.459

ACAGACGAAGGAGCCGCAAAGAAGTTATTAAGGGATTAATAATCCCTCAATATAAATAACTCTCACTTATTTAAA
cleaved RNA product abundance [2]: 1.02 | cleaved RNA product abundance [3]: 0.594

ACAGACGAAGGAGCCGCAAAGAAGTTATTAACGGATGAATAATCTCTCAATATAAATATCTCTCACTTATTTAAA
cleaved RNA product abundance [2]: 0.0813 | cleaved RNA product abundance [3]: 0.183

CGACATGTCCCGCTTCTTTCATTAATCCGATAGCAACTGTTTTGCTAGATACATTTACCTTTTAAGAGGAGGAAT
cleaved RNA product abundance [1]: 0.354

ACAGACGAAGGAGCCGCAAAGAAGTTATTTAGGGATGATTAATCCCTCAATATAAATATCTCTCACTTATTTAAA
cleaved RNA product abundance [3]: 0.659

ACAGACGAAGGAGCCGCAAAGAAGTTATTAAGGGATGAATTATCCCTCTATATAAATATCTCTCACTTATTTAAA
cleaved RNA product abundance [3]: 0.3

ACAGACGAAGGAGCCGCCAATAAGTTATTAAGGGATGAATAATCCCTCAATATAAATATCTCTCACTTATTTAAA
cleaved RNA product abundance [3]: 0.812

CGACATGTCCCGCTTCTTTCATTAATCCGTTAGCAACTGTTTTGCTATATACATATACTTTTTAAGAGGAGGAAT
cleaved RNA product abundance [1]: 0.975

CGACATGTCCCGCTTCTTTCATTAATCCGTTAGGAACTGTTTAGCTATATACATTTACCTTTTAAGAGGAGGAAT
cleaved RNA product abundance [1]: 0.327

CGACATGTCCCGCTTCTTTCATTAATCCGTTAGCTGCTGTTTTGCTATATACATTTACCTTTTAAGAGGAGGAAT
cleaved RNA product abundance [1]: 0.658

CGACATGTCCCGCTTCTTTCATTAATCCGTTAGCAACTGTTTTGCTATATAGAATTACCTTTTAAGAGGAGGAAT
cleaved RNA product abundance [1]: 1.14

ACAGACGAAGGAGCCGCATAGAAGTTATTAAGGGATGAATAAGCCCTCAATATAAATATCTCTCACTTATTTAAA
cleaved RNA product abundance [3]: 0.32

ACAGACGAAGGAGCCGCAAAGAAGTTATTAAGAGATTAATAATCCCTCAATATAAATATCTCTCACTTATTTAAA
cleaved RNA product abundance [2]: 0.116 | cleaved RNA product abundance [3]: 0.115

CGACATGTCCCGCTTCTTTCATTAATCCCGTTAGCAACTGTTTTGCTATATACATTTACCTTTTAAGAGGAGGAA
cleaved RNA product abundance [1]: 1.01

ACAGACGAAGGAGCCGCAAAGAAGTTATAAAGGGATGAATAATCCCTCAATAAAAATATCTCTCACTTATTTAAA
cleaved RNA product abundance [2]: 0.125 | cleaved RNA product abundance [3]: 0.0461

ACAGACGAAGGAGCCGCAAAGAAGTTATAAAGGGAAGAATAATCCCTCAATATAAATATCTCTCACTTATTTAAA
cleaved RNA product abundance [2]: 0.174 | cleaved RNA product abundance [3]: 0.322

ACAGACGAAGGAGCCGCAAAGAAGTTATTACGGGTTGAATAATCCCTCAATATAAATATCTCTCACTTATTTAAA
cleaved RNA product abundance [2]: 0.087 | cleaved RNA product abundance [3]: 0.16

ACAGACGAAGGAGCCGCAAAGAAGTTATCAAGGGATGAATTATCCCTCAATATAAATATCTCTCACTTATTTAAA
cleaved RNA product abundance [3]: 0.25

ACAGACGAAGGAGCCGCAAAGAAGTTATTAAAGGATAAATAAACCCTCAATATAAATATCTCTCACTTATTTAAA
cleaved RNA product abundance [3]: 0.128

CGACATGTCCCGCTTCTTTCATTAATCCGTTAGCAACTGTTTTACTATATACATTCACCTTTTAAGAGGAGGAAT
cleaved RNA product abundance [1]: 0.4

ACAGACGAAGGAGCCGCAAAGAAGTTAATAAGGGAAGAATAATCCCTCAATATAAATATCTCTCACTTATTTAAA
cleaved RNA product abundance [2]: 0.135 | cleaved RNA product abundance [3]: 0.17

ACAGACGAAGGAGCCGCAAAGAAGTTATTAAGGGATGAATAATCTTTCAATATAAATATCTCTCACTTATTTAAA
cleaved RNA product abundance [3]: 0.122

CGACATGTCCCGCTTCTTTCATTATTCCGTTAGCAACTGTTTTGCTATAAACATTTACCTTTTAAGAGGAGGAAT
cleaved RNA product abundance [1]: 0.851

ACAGACGAAGGAGCCGCCAAGAAGTTATTAAGGTATGAATAATCCCTCAATATAAATATCTCTCACTTATTTAAA
cleaved RNA product abundance [3]: 0.103

ACAGACGAAGGAGCCGCAAAGAAGTTATTAAGGGATGAATAATTCTTCAATATAAATATCTCTCACTTATTTAAA
cleaved RNA product abundance [3]: 0.18

CGACATGTCCCGCTTCTTTCATTATTCCGTTAGCAACTGTTTTGGTATATACATTTACCTTTTAAGAGGAGGAAT
cleaved RNA product abundance [1]: 0.304

ACAGACGAAGGAGCCGCAAAGAAGTTAGAAAGGGATGAATAATCCCTCAATATAAATATCTCTCACTTATTTAAA
cleaved RNA product abundance [3]: 0.426

ACAGACGAAGGAGCCGCAAAGAAGTTATTAACGGATGAATAATCCCTCAATATTAATATCTCTCACTTATTTAAA
cleaved RNA product abundance [2]: 0.0877 | cleaved RNA product abundance [3]: 0.0699

CGACATGTCCCGCTTCTTTCATTAATCCGTTAGCAACTTTTTTGCTATATACATTTACCATTTAAGAGGAGGAAT
cleaved RNA product abundance [1]: 1.97

ACAGACGAAGGAGCCGCAAAAAAGTTATTAAGGGATGAATAATCCCCCAATATAAATATCTCTCACTTATTTAAA
cleaved RNA product abundance [2]: 0.238 | cleaved RNA product abundance [3]: 0.35

ACAGACGAAGGAGCCGCATAGAAGTTATTAAGGGATGAAGAATCCCTCAATATAAATATCTCTCACTTATTTAAA
cleaved RNA product abundance [3]: 0.861

ACAGACGAAGGAGCCGCAAAGAAGTTATTAGGGGATGAATAATCCCTCAAAATAAATATCTCTCACTTATTTAAA
cleaved RNA product abundance [2]: 0.351 | cleaved RNA product abundance [3]: 0.476

CGACATGTCCCGCTTCTTTCATTAATCAGTTAGCAACTGTTTTGCTATATACATTTATCTTTTAAGAGGAGGAAT
cleaved RNA product abundance [1]: 0.854
